The values below are quoted from earlier work in patent US20250255929A1, “METHODS FOR REDUCING RISKS ASSOCIATED WITH HEART FAILURE AND FACTORS ASSOCIATED THEREWITH” (Stealth BioTherapeutics Inc., priority 2012, published 2025).

The subject of this data set is several mammalian cell types. Particulars: energy-independent manner, Zhao et al., J. Pharmacol Exp Ther., 304:425-432, 2003; cited from earlier work.

Square brackets hold non-standard residues; d marks the D form. Ends that are not written are not given here. Dmt = Cc1cc(O)cc(C)c1C[C@H](N)C(=O)O

Turning to “2′,6′-Dmt-D-Arg-Phe-Lys-NH2 ([Dmt][dR]FK-NH2)”, the “penetration of the plasma membrane” value was “readily penetrates the plasma membrane”.
